From doi:10.1101/2022.02.11.480038, “Phosphorylation by casein kinase 2 ensures ER-phagy receptor TEX264 binding to ATG8 proteins” (bioRxiv, 2022)
Where no end group is shown, it is not given here. [ ]: non-standard residue; d: D form. pS = N[C@@H](COP(=O)(O)O)C(=O)O

B1: TEX264 peptide (residues 269-278) with S272 phosphorylation (p-S272) (peptide)
peptide: SGS[pS]FEELDL
notes: also called p-Ser272; source: synthetic peptide, bought: GenScript; passed over Superdex peptide
B2: TEX264 LIR peptide (residues 266-278) with S266 phosphorylation (p-S266) (peptide)
peptide: [pS]GASGSSFEELDL
notes: source: synthetic peptide, bought: GenScript; passed over Superdex peptide
B3: phosphomimetic TEX264^(S271D, S272D) peptide (2SD-LIR) (peptide, UniProt Q9Y6I9 269-278, looked up)
peptide: SGDDFEELDL
notes: also called 2D-LIR; source: synthetic peptide, bought: GenScript; passed over Superdex peptide
B4: phosphomimetic TEX264^(S269D, S271D, S272D) peptide (3SD-LIR) (peptide, UniProt Q9Y6I9 269-278, looked up)
peptide: DGDDFEELDL
notes: also called 3D-LIR; source: synthetic peptide, bought: GenScript; passed over Superdex peptide
B5: phosphomimetic TEX264^(S271, 272E) peptide (2SE-LIR) (peptide, UniProt Q9Y6I9 269-278, looked up)
peptide: SGEEFEELDL
notes: also called 2E-LIR; source: synthetic peptide, bought: GenScript; passed over Superdex peptide
B6: phosphomimetic TEX264^(S269E, S271E, S272E) peptide (3SE-LIR) (peptide, UniProt Q9Y6I9 269-278, looked up)
peptide: EGEEFEELDL
notes: also called 3E-LIR; source: synthetic peptide, bought: GenScript; passed over Superdex peptide

How the values were obtained:
[1] = molecular target: Human LC3B (residues 1-120) (human, UniProt Q9GZQ8 1-120); assay: ITC; Microcal iTC200, 25°C; TEX264 peptides 0.5 mM in the syringe, LC3B or GABARAP in the cell at 10-times lower concentration; single-site binding model; conditions: both partners purified
[2] = molecular target: T1, Human GABARAP (residues 1-116) (human, UniProt O95166 1-116); assay: as above; conditions: both partners purified
T1 construct: GABARAP, human, residues 1-116; source: prepared as described previously (Mochida et al., 2020), purified
T1 sequence (O95166 1-116): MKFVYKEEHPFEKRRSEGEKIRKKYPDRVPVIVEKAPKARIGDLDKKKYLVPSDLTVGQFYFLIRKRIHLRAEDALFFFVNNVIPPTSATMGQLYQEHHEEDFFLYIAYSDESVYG

Row | Binder | fold enhancement of affinity over the unphosphorylated peptide [1] | fold enhancement of affinity over the unphosphorylated peptide [2] | binding result [1] | fold enhancement of affinity over the unmodified peptide [2]
1 | B1 | 37 fold | 23 fold | – | –
2 | B2 | 1.8 fold | 6.5 fold | – | –
3 | B3 | – | – | binds | ~20 fold
4 | B4 | – | – | binds | ~20 fold
5 | B5 | – | – | binds | ~20 fold
6 | B6 | – | – | binds | ~20 fold
